B1: farnesylated Spindly (Spindly^Farn) (natural protein, human, UniProt Q96EA4 1-605, looked up)
chain: MEADIITNLRCRLKEAEEERLKAAQYGLQLVESQNELQNQLDKCRNEMMTMTESYEQEKYTLQREVELKSRMLESLSCECEAIKQQQKMHLEKLEEQLSRSHGQEVNELKTKIEKLKVELDEARLSEKQLKHQVDHQKELLSCKSEELRVMSERVQESMSSEMLALQIELTEMESMKTTLKEEVNELQYRQEQLELLITNLMRQVDRLKEEKEEREKEAVSYYNALEKARVANQDLQVQLDQALQQALDPNSKGNSLFAEVEDRRAAMERQLISMKVKYQSLKKQNVFNREQMQRMKLQIATLLQMKGSQTEFEQQERLLAMLEQKNGEIKHLLGEIRNLEKFKNLYDSMESKPSVDSGTLEDNTYYTDLLQMKLDNLNKEIESTKGELSIQRMKALFESQRALDIERKLFANERCLQLSESENMKLRAKLDELKLKYEPEETVEVPVLKKRREVLPVDITTAKDACVNNSALGGEVYRLPPQKEETQSCPNSLEDNNLQLEKSVSIYTPVVSLSPHKNLPVDMQLKKEKKCVKLIGVPADAEALSERSGNTPNSPRLAAESKLQTEVKEGKETSSKLEKETCKKLHPILYVSSKSTPETQCPQQ
modifications: farnesyl on Cys602
B2: mCherry–Spindly^Farn (natural protein, human, UniProt Q96EA4 1-605, looked up)
chain: B1 chain
modifications: farnesyl on Cys602
B3: ZW10 (natural protein, human, UniProt O43264 1-779, looked up)
chain: MASFVTEVLAHSGRLEKEDLGTRISRLTRRVEEIKGEVCNMISKKYSEFLPSMQSAQGLITQVDKLSEDIDLLKSRIESEVRRDLHVSTGEFTDLKQQLERDSVVLSLLKQLQEFSTAIEEYNCALTEKKYVTGAQRLEEAQKCLKLLKSRKCFDLKILKSLSMELTIQKQNILYHLGEEWQKLIVWKFPPSKDTSSLESYLQTELHLYTEQSHKEEKTPMPPISSVLLAFSVLGELHSKLKSFGQMLLKYILRPLASCPSLHAVIESQPNIVIIRFESIMTNLEYPSPSEVFTKIRLVLEVLQKQLLDLPLDTDLENEKTSTVPLAEMLGDMIWEDLSECLIKNCLVYSIPTNSSKLQQYEEIIQSTEEFENALKEMRFLKGDTTDLLKYARNINSHFANKKCQDVIVAARNLMTSEIHNTVKIIPDSKINVPELPTPDEDNKLEVQKVSNTQYHEVMNLEPENTLDQHSFSLPTCRISESVKKLMELAYQTLLEATTSSDQCAVQLFYSVRNIFHLFHDVVPTYHKENLQKLPQLAAIHHNNCMYIAHHLLTLGHQFRLRLAPILCDGTATFVDLVPGFRRLGTECFLAQMRAQKGELLERLSSARNFSNMDDEENYSAASKAVRQVLHQLKRLGIVWQDVLPVNIYCKAMGTLLNTAISEVIGKITALEDISTEDGDRLYSLCKTVMDEGPQVFAPLSEESKNKKYQEEVPVYVPKWMPFKELMMMLQASLQEIGDRWADGKGPLAAAFSSSEVKALIRALFQNTERRAAALAKIK
B4: Zwilch (natural protein)
chain: not shown
B5: ROD^Δ754–1,796 (domain or fragment, human)
chain: MWNDIELLTNDDTGSGYLSVGSRKEHGTALYQVDLLVKISSEKASLNPKIQACSLSDGFIIVADQSVILLDSICRSLQLHLVFDTEVDVVGLCQEGKFLLVGERSGNLHLIHVTSKQTLLTNAFVQKANDENRRTYQNLVIEKDGSNEGTYYMLLLTYSGFFCITNLQLLKIQQAIENVDFSTAKKLQGQIKSSFISTENYHTLGCLSLVAGDLASEVPVIIGGTGNCAFSKWEPDSSKKGMTVKNLIDAEIIKGAKKFQLIDNLLFVLDTDNVLSLWDIYTLTPVWNWPSLHVEEFLLTTEADSPSSVTWQGITNLKLIALTASANKKMKNLMVYSLPTMEILYSLEVSSVSSLVQTGISTDTIYLLEGVCKNDPKLSEDSVSVLVLRCLTEALPENRLSRLLHKHRFAEAESFAIQFGLDVELVYKVKSNHILEKLALSSVDASEQTEWQQLVDDAKENLHKIQDDEFVVNYCLKAQWITYETTQEMLNYAKTRLLKKEDKTALIYSDGLKEVLRAHAKLTTFYGAFGPEKFSGSSWIEFLNNEDDLKDIFLQLKEGNLVCAQYLWLRHRANFESRFDVKMLESLLNSMSASVSLQKLCPWFKNDVIPFVRRTVPEGQIILAKWLEQAARNLELTDKANWPENGLQLAEIFFTAEKTDELGLASSWHWISLKDYQNTEEVCQLRTLVNNLRELITLHRKYNCKLALSDFEKENTTTIVFRMFDKVLAPELIPSILEKFIRVYMREHDLQEEGGSGGGSGGGSGGGSGIHAAAKEIAEVNEINLEKVWDMLLEKWLCPSTKPGEKPSELFELQEDEALRRVQYLLLSRPIDYSSRMLFVFATSTTTTLGMHQLTFAHRTRALQCLFYLADKETIESLFKKPIEEVKSYLRCITFLASFETLNIPITYELFCSSPKEGMIKGLWKNHSHESMAVRLVTELCLEYKIYDLQLWNGLLQKLLGFNMIPYLRKVLKAISSIHSLWQVPYFSKAWQRVIQIPLLSASCPLSPDQLSDCSESLIAVLECPVSGDLDLIGVARQYIQLELPAFALACLMLMPHSEKRHQQIKNFLGSCDPQVILKQLEEHMNTGQLAGFSHQIRSLILNNIINKKEFGILAKTKYFQMLKMHAMNTNNITELVNYLANDLSLDEASVLITEYSKHCGKPVPPDTAPCEILKMFLSGLS

Tests used:
[1] = target: ROD–Zwilch–ZW10 (RZZ) complex (human, UniProt P50748 1-2209; Q9H900 1-591; O43264 1-779); test: AUC
Chain of ROD–Zwilch–ZW10 (RZZ) complex (Q9H900 whole entry, one chain of several): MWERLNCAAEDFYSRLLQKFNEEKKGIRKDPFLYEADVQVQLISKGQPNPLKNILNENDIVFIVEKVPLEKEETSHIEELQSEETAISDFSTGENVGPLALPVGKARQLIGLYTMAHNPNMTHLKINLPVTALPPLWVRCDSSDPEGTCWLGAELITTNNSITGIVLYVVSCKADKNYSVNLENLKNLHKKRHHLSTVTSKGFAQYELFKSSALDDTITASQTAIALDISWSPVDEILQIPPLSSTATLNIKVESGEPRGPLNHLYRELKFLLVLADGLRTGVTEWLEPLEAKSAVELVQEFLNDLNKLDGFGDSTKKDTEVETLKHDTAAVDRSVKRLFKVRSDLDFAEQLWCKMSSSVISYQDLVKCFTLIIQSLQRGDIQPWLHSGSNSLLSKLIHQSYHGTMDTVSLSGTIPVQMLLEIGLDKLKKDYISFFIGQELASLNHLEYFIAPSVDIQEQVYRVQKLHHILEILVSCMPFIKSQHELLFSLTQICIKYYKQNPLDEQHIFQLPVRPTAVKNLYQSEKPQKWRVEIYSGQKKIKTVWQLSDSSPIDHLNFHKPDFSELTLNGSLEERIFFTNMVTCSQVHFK

[2] = target: T1, ROD^1–1,250 (human, UniProt P50748 1-1250); test: negative-stain EM 3D reconstruction
T1 sequence (looked up): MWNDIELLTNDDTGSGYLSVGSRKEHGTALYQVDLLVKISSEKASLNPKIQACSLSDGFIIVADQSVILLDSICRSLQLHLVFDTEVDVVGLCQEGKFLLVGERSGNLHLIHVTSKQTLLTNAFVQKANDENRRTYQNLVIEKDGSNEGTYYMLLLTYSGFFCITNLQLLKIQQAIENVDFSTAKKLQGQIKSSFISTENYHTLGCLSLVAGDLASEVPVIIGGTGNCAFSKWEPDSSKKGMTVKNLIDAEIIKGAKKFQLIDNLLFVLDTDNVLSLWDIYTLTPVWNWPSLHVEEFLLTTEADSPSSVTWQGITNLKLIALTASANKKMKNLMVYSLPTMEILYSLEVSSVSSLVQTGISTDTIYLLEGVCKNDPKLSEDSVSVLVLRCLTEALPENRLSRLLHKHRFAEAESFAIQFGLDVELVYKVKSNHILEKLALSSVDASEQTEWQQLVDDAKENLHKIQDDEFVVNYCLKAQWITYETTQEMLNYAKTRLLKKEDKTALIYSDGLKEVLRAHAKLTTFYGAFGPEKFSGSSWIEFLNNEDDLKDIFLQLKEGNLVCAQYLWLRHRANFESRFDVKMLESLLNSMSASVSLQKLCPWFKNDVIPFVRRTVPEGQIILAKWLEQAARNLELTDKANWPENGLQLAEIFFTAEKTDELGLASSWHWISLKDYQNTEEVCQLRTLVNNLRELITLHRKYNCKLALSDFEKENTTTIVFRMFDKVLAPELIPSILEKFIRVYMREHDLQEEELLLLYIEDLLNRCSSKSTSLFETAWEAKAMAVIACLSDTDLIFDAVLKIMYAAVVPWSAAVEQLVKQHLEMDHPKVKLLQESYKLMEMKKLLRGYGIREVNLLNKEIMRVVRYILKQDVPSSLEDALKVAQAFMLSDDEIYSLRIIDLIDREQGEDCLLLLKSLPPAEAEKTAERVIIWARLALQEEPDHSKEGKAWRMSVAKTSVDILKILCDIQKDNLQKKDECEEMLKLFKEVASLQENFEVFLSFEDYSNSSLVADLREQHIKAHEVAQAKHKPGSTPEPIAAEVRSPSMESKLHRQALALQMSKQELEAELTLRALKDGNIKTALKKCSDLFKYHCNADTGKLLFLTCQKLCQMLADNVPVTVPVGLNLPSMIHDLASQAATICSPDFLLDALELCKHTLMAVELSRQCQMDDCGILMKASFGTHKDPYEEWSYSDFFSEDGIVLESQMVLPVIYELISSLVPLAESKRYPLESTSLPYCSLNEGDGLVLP

[3] = target: T1, ROD^1–1,250; test: co-expression and co-purification
[4] = target: B4; test: SEC

Binder | stoichiometry N [1] | binding result [2] | binding result [3] | binding result [4]
B1 | 2 copies of each subunit |  |  | 
B2 | 2 copies of each subunit |  |  | 
B3 |  | binds | binds | 
B4 |  | binds | binds | 
B5 |  |  |  | binds
